The target of this data set is LetA (UniProt Q8KQL1 1-219). The data set is described as follows: EMSA. (In general: A gel shift assay detects complexes by their altered migration in electrophoresis.)

B1: rsmZ upstream 35mer (dsDNA)
DNA 1: GTAATTGATGTAAGAAATTTCTCAATTCCATAGA
DNA 2: TCTATGGAATTGAGAAATTTCTTACATCAATTAC
B1: the binding result was “binds”.

B2: rsmY upstream 35mer (dsDNA)
DNA 1: CTCTTCTTAATTGAGAAATTTCTTACATATTACTGC
DNA 2: GCAGTAATATGTAAGAAATTTCTCAATTAAGAAGAG
As to B2, the binding result is on record as “binds”.

Source of the values: publication PMC2888818.
